Measured values: US6942981

Biological target: GST-DLG1 PDZ domains 1-2 fusion protein (human) (UniProt Q12959)
Test: variant of the G assay; 100 uM unlabeled 8-mer with 20 uM biotin-labeled AA2L on immobilized GST-DLG1

Question: How did the percent inhibition of labeled AA2L CLASP-2 peptide binding turn out when “CLASP-2 C-terminal 8-mer peptide MTSSSSVV (unlabeled)” was run?
Answer: > 50%
